Measured values published in the supplement of paper PMC7125110.
± gives the standard error. For some assays here: This sample holds only a part of the variants without activity.

B1: glmS ribozyme (parent)
chain: AUAAAAGCGCCAGAACUACAGAAAUGUAGUUGACGAGGAGGAGGUUUAUCGAAUUUUCGGCGGAUGCCUCCAAA

Assays:
Details in all cases: with glucosamine-6-phosphate
glucosamine-6-phosphate [1] = variants of: B1; assay: kcat; higher = faster cleavage; RNA array
Summary of the method: (§1)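 On sequenced MiSeq chips, barcoded ribozyme variants were made in situ by E. coli RNA polymerase and followed at 37 °C through a hybridised Cy3 probe. Glucosamine-6-phosphate was flowed in at 40 μM to 10 mM in HEPES/KCl/Mg(OAc)2 buffer. Exponential fits to normalised per-tile medians gave kobs, and weighted Michaelis–Menten fits gave kcat and KM.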

glucosamine-6-phosphate [2] = variants of: B1; assay: self-cleavage kobs at 160 uM GlcN6P; higher = faster cleavage; RNA array
Summary of the method: as §1

glucosamine-6-phosphate [3] = variants of: B1; assay: self-cleavage kobs at 640 uM GlcN6P; higher = faster cleavage; RNA array
Summary of the method: as §1

glucosamine-6-phosphate [4] = variants of: B1; assay: self-cleavage kobs at 2500 uM GlcN6P; higher = faster cleavage; RNA array
Summary of the method: as §1

glucosamine-6-phosphate [5] = variants of: B1; assay: self-cleavage kobs at 10000 uM GlcN6P; higher = faster cleavage; RNA array
Summary of the method: as §1

glucosamine-6-phosphate [6] = variants of: B1; assay: KM; higher = weaker cofactor use; RNA array
Summary of the method: as §1

glucosamine-6-phosphate [7] = variants of: B1; assay: self-cleavage kobs at 40 uM GlcN6P; higher = faster cleavage; RNA array
Summary of the method: as §1

Row | Variant | kcat (glucosamine-6-phosphate [1]) | self-cleavage kobs at 160 uM GlcN6P (glucosamine-6-phosphate [2]) | self-cleavage kobs at 640 uM GlcN6P (glucosamine-6-phosphate [3]) | self-cleavage kobs at 2500 uM GlcN6P (glucosamine-6-phosphate [4]) | self-cleavage kobs at 10000 uM GlcN6P (glucosamine-6-phosphate [5]) | KM (glucosamine-6-phosphate [6]) | self-cleavage kobs at 40 uM GlcN6P (glucosamine-6-phosphate [7])
1 | G38A C50G G63U C71A | 4.03e-05 ± 1.2e-05 s⁻¹ | 7.25e-05 ± 2.2e-05 s⁻¹ | 4.7e-05 ± 2.1e-05 s⁻¹ | 3.94e-05 ± 1.3e-05 s⁻¹ |  |  | 
2 | G13U G29C | 0.000126 ± 2.5e-05 s⁻¹ |  | 4.72e-05 ± 1.7e-05 s⁻¹ | 0.00015 ± 2.3e-05 s⁻¹ | 0.000107 ± 1.4e-05 s⁻¹ |  | 
3 | A33C U45A | 0.000472 ± 1.3e-05 s⁻¹ |  | 7.41e-05 ± 1.9e-05 s⁻¹ | 0.000197 ± 2.9e-05 s⁻¹ | 0.00035 ± 5.3e-05 s⁻¹ | 3500 ± 180 µM | 
4 | C16G U54C | 0.00528 ± 0.0015 s⁻¹ | 0.000157 ± 5.6e-05 s⁻¹ | 0.000745 ± 0.00019 s⁻¹ | 0.00247 ± 0.00064 s⁻¹ | 0.00397 ± 0.00058 s⁻¹ | 3350 ± 1400 µM | 9.28e-05 ± 1.6e-05 s⁻¹
5 | G32C U46G | 1.21e-05 ± 4.8e-07 s⁻¹ |  |  |  |  | 349 ± 150 µM | 
6 | A39G U46C | 0.00815 ± 0.0014 s⁻¹ | 0.00135 ± 0.00039 s⁻¹ | 0.00369 ± 0.00073 s⁻¹ | 0.0069 ± 0.0015 s⁻¹ | 0.00601 ± 0.0018 s⁻¹ | 946 ± 240 µM | 0.000292 ± 6.4e-05 s⁻¹
7 | G40C U46A | 0.000264 ± 7.1e-05 s⁻¹ |  | 7.92e-05 ± 1.6e-05 s⁻¹ | 0.000286 ± 4.6e-05 s⁻¹ | 0.000207 ± 3.1e-05 s⁻¹ |  | 
8 | U45C U55A | 0.00681 ± 0.0026 s⁻¹ |  | 0.000581 ± 0.00013 s⁻¹ | 0.00182 ± 0.00067 s⁻¹ | 0.00457 ± 0.0012 s⁻¹ | 5900 ± 2800 µM | 5.89e-05 ± 1.4e-05 s⁻¹
9 | U49C C67U | 1e-05 ± 1e-06 s⁻¹ |  |  |  |  | 267 ± 130 µM | 
10 | A15C G32C A53C | 2.15e-05 ± 1.1e-06 s⁻¹ |  |  |  |  |  | 
11 | U47G C58G | 0.000117 ± 5.4e-05 s⁻¹ |  | 5.51e-05 ± 2.1e-05 s⁻¹ | 3.21e-05 ± 1.3e-05 s⁻¹ | 8.31e-05 ± 1.2e-05 s⁻¹ |  | 
12 | A14C G29U G37U G38A C70A | 5.57e-05 ± 2e-05 s⁻¹ |  |  | 6.04e-05 ± 2.4e-05 s⁻¹ |  |  | 
13 | A48G U55C | 0.000123 ± 9.6e-06 s⁻¹ |  | 7.4e-05 ± 2.3e-05 s⁻¹ | 0.000125 ± 2.5e-05 s⁻¹ | 0.000113 ± 1.3e-05 s⁻¹ | 458 ± 210 µM | 
14 | A14U C58G | 0.000104 ± 9.8e-06 s⁻¹ |  | 3.48e-05 ± 1.2e-05 s⁻¹ | 4.98e-05 ± 1.1e-05 s⁻¹ | 8.81e-05 ± 7.2e-06 s⁻¹ | 1960 ± 710 µM | 
15 | C10A C71U | < 1e-05 s⁻¹ |  |  |  |  |  | 
16 | A12C A33U | 0.000132 ± 1.7e-05 s⁻¹ |  |  | 6.22e-05 ± 7.4e-06 s⁻¹ | 9.81e-05 ± 6.4e-06 s⁻¹ | 3330 ± 1200 µM | 
17 | U31A G40U | 0.00159 ± 0.00017 s⁻¹ |  | 0.000444 ± 0.00018 s⁻¹ | 0.00109 ± 0.00024 s⁻¹ | 0.00148 ± 0.00022 s⁻¹ | 1080 ± 240 µM | 6.29e-05 ± 1.4e-05 s⁻¹
18 | A14U G29C U46G C70A | 2.85e-05 ± 1.1e-05 s⁻¹ |  |  |  |  |  | 
19 | G66A | 0.0375 ± 0.011 s⁻¹ | 0.0016 ± 6.7e-05 s⁻¹ | 0.00697 ± 0.0004 s⁻¹ | 0.016 ± 0.00099 s⁻¹ | 0.0316 ± 0.0015 s⁻¹ | 2780 ± 890 µM | 0.00059 ± 1.2e-05 s⁻¹
